{"source": "the DeepSol protein solubility set"}
{"experiment": "soluble on expression in E. coli; label from the status in PepcDB or PDB records"}
{"sequence": "QQFPNECQLDQLNALEPSHVLKAEAGRIEVWDHHAPQLRCSGVSFVRYIIESKGLYLPSFFSTAKLSFVAKGEGLMGRVVPGCAETFQDSSVFQPGGGSPFGEGQGQGQQGQGQGHQGQGQGQQGQQGQQGQQSQGQGFRDMHQKVEHIRTGDTIATHPGVAQWFYNDGNQPLVIVSVLDLASHQNQLDRNPRPFYLAGNNPQGQVWIEGREQQPQKNILNGFTPEVLAKAFKIDVRTAQQLQNQQDNRGNIIRVQGPFSVIRPPLRSQRPQEEVNGLEETICSARCTDNLDDPSNADVYKPQLGYISTLNSYDLPILRFLRLSALRGSIRQNAMVLPQWNANANAVLYVTDGEAHVQVVNDNGDRVFDGQVSQGQLLSIPQGFSVVKRATSEQFRWIEFKTNANAQINTLAGRTSVLRGLPLEVISNGYQISLEEARRVKFNTIETTLTHSSGPASYGGPRKADA", "soluble on expression in E. coli": "soluble"}
{"sequence": "QSKFKKYSKMPLASGMTGKDVAEKMLHDNGIYDVRVTSTPGMLTDHYNPANKTVNLSEGVYGSNSVAAAAVAAHECGHAVQHARAYAPLKMRS", "soluble on expression in E. coli": "not soluble"}
{"sequence": "QTVQSTSKGSDYIVAVTACTTGIAHTYMAEEALKKKAAEMGVGIKVETNGASGVGNKLTSSDIARAKGVIIAADKAVEMDRFDGKPLVSRPVADGIKKSEDLINIILDNKAQTY", "soluble on expression in E. coli": "not soluble"}
{"sequence": "QVKEVQIRFEKDALHNIMEMQYKNYQLSKENIDMVNQKYHDLKHQINILKTQSYTGKSTNYLEKMEREIRVYETQNKTGNQILDAVLTNKAMICQNKEIELKFIVDGEALSFMDDMDVSALFGNMLDNAIESAEKQQEKQKRLIWLYVTREKQFVRIRTENYCDEKIHFKNGMPVTTKKDRRLHGYGMKSIKSTVEKYHGSVVAAQENNWFELKILLPAGR", "soluble on expression in E. coli": "not soluble"}
{"sequence": "QVQLQESGGGLVQAGDSLKLSCEASGDSIGTYVIGWFRQAPGKERIYLATIGRNLVGPSDFYTRYADSVKGRFAVSRDNAKNTVNLQMNSLKPEDTAVYYCAAKTTTWGGNDPNNWNYWGQGTQVTVSS", "soluble on expression in E. coli": "soluble"}
{"sequence": "QVQLQESGGGLVQAGGSLRLSCAASGSIFSINSMDWDRQAPGKQRELVATITSGGSTNYADSVKGRFTISRDNAKNTVYLQMNSLKPEDTAVYYCNANVKTWAGMTRDYWGQGTQVTVSSHHHHHH", "soluble on expression in E. coli": "soluble"}
{"sequence": "QVQLQQPGTELVKPGASVKLSCKASGYTFTGFWIHWVKQRPGQGLEWIGHINPGNGGTNYNEKFKRMATLTVDKSSSTAYMQLSSLTSEDSAVYYCARSYSNYVRAMDYWGQGTSVTVSSAKTTAPSVYPLVPVCGGTTGSSVTLGCLVKGYFPEPVTLTWNSGSLSSGVHTFPALLQSGLYTLSSSVTVTSNTWPSQTITCNVAHPASSTKVDKKIEP", "soluble on expression in E. coli": "soluble"}
{"sequence": "QVRQSPQSLTVWEGETTILNCSYEDSTFDYFPWYRQFPGKSPALLIAISLVSNKKEDGRFTIFFNKREKKLSLHITDSQPGDSATYFCAATGSFNKLTFGAGTRLAVSPY", "soluble on expression in E. coli": "soluble"}
{"sequence": "QWGSMRMPSDRISSGMAFSSVAQEAGFQNDDIILAVDGRPVDALASGFMRSVIQARQVEVLRQGRREIVHVPHDMMKRVLKANSGFMSIQVPFVIDSVMPQGTAYACQLKAGDSITAVNGKLMPDASDVIGAIRSHAGDTIALSIARAGEELTITLPVDTGGLIGVSLRPLDAIYTIDHIRYSLFEAIPAGIAQGMGTMRSYVSDMKYVFTKEGAGQIGGFGTLGSLFPASWNWPQFWAMTALLS", "soluble on expression in E. coli": "not soluble"}
{"sequence": "RCPKGSKAYGSHCYALFLSPKSWTDADLACQKRPSGNLVSVLSGAEGSFVSSLVKSIGNSYSYVWIGLHDPTQGTEPNGEGWEWSSSDVMNYFAWERNPSTISSPGHCASLSRSTAFLRWKDYNCNVRLPYVCKFTD", "soluble on expression in E. coli": "soluble"}
{"sequence": "REEELNTEKVVAAIANPVENEVRKVWEDVVEKIEQRVAVIEQASHKLLQNKVSEEILSKAKVEAHKLAGSLGMFGSDEGSQIAQEIESLLDNGKKLKASGGKHLGQVVEALHQELENLKSG", "soluble on expression in E. coli": "soluble"}
{"sequence": "REQFGRDVMVVVDLSGSMAEKDFTSTNGLKISRLDAVKKVLNDFVKTRKGDRLGLILFGDAAFVQTPFTADHKVWLDLLNQTHVEMAGKSTHLGDAIGLTIKRFEDSNNSQPLSTTSREKVAIILTDGNDTDSYVPPMDAAKVAKVKGVRIHMIAIGDPQTVGEQALDMDTINTIADASGGQAFQALNQDELINAYAEISKLEPQLYQSTTYRT", "soluble on expression in E. coli": "not soluble"}
{"sequence": "REVADTAYDRTLLASARAIADGLYEKDGTLRADVPYVALDTFAYDSAGRIFYQVNDIHGRMISGYENLPAAPADTLRTDDYPALAKFYDGVYQGVDVRVVSLLQPVSEPSMSGMAEIRVAETEGARERMARS", "soluble on expression in E. coli": "not soluble"}
{"sequence": "RHMRIAVIGGGSSYTPELVKGLLDISEDVRIDEVIFYDIDEEKQKIVVDFVKRLVKDRFKVLISDTFEGAVVDAKYVIFQFRPGGLKGRENDEGIPLKYGLIGQETTGVGGFSAALRAFPIVEEYVDTVRKTSNATIVNFTNPSGHITEFVRNYLEYEKFIGLCNVPINFIREIAEMFSARLEDVFLKYYGLNHLSFIEKVFVKGEDVTEKVFENLKLKLSNIPDEDFPTWFYDSVRLIVNPYLRYYLMEKKMFKKISTHELRAREVMKIEKELFEKYRTAVEIPEELTKRGGSMYSTAAAHLIRDLETDEGKIHIVNTRNNGSIENLPDDYVLEIPCYVRSGRVHTLSQGKGDHFALSFIHAVKMYERLTIEAYLKRSKKLALKALLSHPLGPDVEDAKDLLEEILEANREYVKLG", "soluble on expression in E. coli": "soluble"}
{"sequence": "RHNLIQRKRELDKQNELYRAIISASFAFVFQIDTEARFSFVSPSVEDFTGYRPDMLNGEPISILGSDEQAIKEARDYLARVLNDGEAIQVRGHPIETRSGNTVYGDIRAEPIYEPSVASSARTTENIIGAQVMVRDAS", "soluble on expression in E. coli": "not soluble"}
{"sequence": "RKEIQPIRELAKAATLMSSRLDVPEVSERGSNELKAAVRAFNKMNRRIDSHIKDREMLFSAISHDLKTPIACLKLRAEMLDDDADRERFIRLSNDLDLMVKGALQCIKETDIHEEIEPINFTQLIQHISSNIADAPDTIRIHGEIRTHFAGK", "soluble on expression in E. coli": "not soluble"}
{"sequence": "RLHRLPRDCQELFQVGERQSGLFEIQPQGSPPFLVNCKMTSDGGWTVIQRRHDGSVDFNRPWEAYKAGFGDPHGEFWLGLEKVHSITGDRNSRLAVQLRDWDGNAELLQFSVHLGGEDTAYSLQLTAPVAGQLGATTVPPSGLSVPFSTWDQDHDLRRDKNCAKSLSGGWWFGTCSHSNLNGQYFRSIPQQRQKLKKGIFWKTWRGRYYPLQATTMLIQPMAAEAAS", "soluble on expression in E. coli": "soluble"}
{"sequence": "RLSDTLMKQALSSVITQEKKRLKSQPKSIAQDIQPPNSMIKNALDEKDSHPFGDCFSDDEFLAIHLYTSCLYRPINHHLRYAPKNDVAPVVEAMNSGLAKLAQYPDYQVSGQLHRGIKQKMDDGEVMSRFKPGNTYRDDAFMSTSTRMDVTEEFTSDVTLHLQSSSAVNIGPFSKNPYEDEALIPPLTPFKVTGLHKQDDRWHVHLNEIAESSDE", "soluble on expression in E. coli": "not soluble"}
{"sequence": "RPVREVGMYNMAMLMRSTGQSSFGQSVRIAENFLNEFPRSSHREQMAAILVESYFTGKDYNSSLRSIQKIAQPTASILAAKQFVLNRMAEQKEAAGYDSEALSFVSSSISMGNKGEYFPEAYFLRGNLRYRAGDFPTAAADYRAYISAAGDRDAANLPLGYYRLGYSLFNAERYDMALEAFKEYVSRSGIAPNLSADAYARIGDCRYMKRDFHGAREAYSMAYRVYPSGGDYALLRRARLEGLAKQYADQIQTLDKLIREFPDSRHLTAALYEKGCGAVLSGKHNVAEEAFNAVVKRSPDSREARQSSLQLGLLYYNTGRTKEAIRTYQRIIDRYPRSEETTVALSDLRSIYLEEDRIDEYSTYVRGLKDKVSIAPSETEQLGFLSAERKYRRRQPDARRDLEAYLERYPQGSDRHKAELYLADLDYQAGNADAAYNRYSRLVNSPGLPEDYKIDARLRLGRMQYERKEYKAALQSFQSVLDTDGAEAVRDQAVQGVTESAYADKDYRRVIDVIAGLKNQAALPHTLRLYRAKSYQALKMNREAIADYELLAEDFSTATGAEAVVMQAQLEMEAKRLSKAKSILEKFIAKSTPQQYWLARGFILLSDIYKKEGDTFTARQYLESLEKNYPNHEDDIHEQIAQRLE", "soluble on expression in E. coli": "not soluble"}
